This series deals with the molecule itself. Nature of the series: conventional and dynamic light scattering.

Changes are numbered by the printed parent chain. Names and notes keep the numbering of the source.

B1: WT Irga6, recombinant (enzyme, mouse, UniProt Q9QZ85 1-413, looked up)
chain: MGQLFSSPKSDENNDLPSSFTGYFKKFNTGRKIISQEILNLIELRMRKGNIQLTNSAISDALKEIDSSVLNVAVTGETGSGKSSFINTLRGIGNEEEGAAKTGVVEVTMERHPYKHPNIPNVVFWDLPGIGSTNFPPNTYLEKMKFYEYDFFIIISATRFKKNDIDIAKAISMMKKEFYFVRTKVDSDITNEADGKPQTFDKEKVLQDIRLNCVNTFRENGIAEPPIFLLSNKNVCHYDFPVLMDKLISDLPIYKRHNFMVSLPNITDSVIEKKRQFLKQRIWLEGFAADLVNIIPSLTFLLDSDLETLKKSMKFYRTVFGVDETSLQRLARDWEIEVDQVEAMIKSPAVFKPTDEETIQERLSRYIQEFCLANGYLLPKNSFLKEIFYLKYYFLDMVTEDAKTLLKEICLRN
Turning to B1, the binding result is “binds”.

B2: Irga6-K82A, recombinant (enzyme, mouse, UniProt Q9QZ85 1-413, looked up)
chain: B1 chain with K82A
Regarding B2, the binding result was “binds”.

The values are drawn from article PMC2532785 (The EMBO Journal, 2008).
